The values below are quoted from earlier work in article PMC4729772 (Theranostics, 2016).

As to “Albiglutide: glucagon-like peptide-1 dimer fused to human albumin”, the half-life entry is reported as “four to seven”.
